Test results from publication PMC11215335 (The Journal of Biological Chemistry, 2024).

Key:
Assay in all cases: ELISA; polyreactivity assay, second experiment (Fig. 3D): antigen coated at constant concentration (proteins 5 ug/ml, bicarbonate buffer pH 9.6); mAb, Fab or scFv serially diluted two-fold from 34 nM Fv; 1 h at 37 C; alkaline phosphatase-conjugated secondary antibody; 'saturating Ag conditions'
Conditions in all cases: both partners purified
actin = actin (Bos taurus (muscle actin, assumed from …, UniProt P68138))
thyroglobulin = target: T1, thyroglobulin (Bos taurus (assumed from catalogue item …, UniProt P01267))
T1 construct: thyroglobulin, Sigma T1001; As I recall, this catalogue item is thyroglobulin from bovine thyroid; source: bought: Sigma (T1001)
T1 sequence (P01267 20-2769): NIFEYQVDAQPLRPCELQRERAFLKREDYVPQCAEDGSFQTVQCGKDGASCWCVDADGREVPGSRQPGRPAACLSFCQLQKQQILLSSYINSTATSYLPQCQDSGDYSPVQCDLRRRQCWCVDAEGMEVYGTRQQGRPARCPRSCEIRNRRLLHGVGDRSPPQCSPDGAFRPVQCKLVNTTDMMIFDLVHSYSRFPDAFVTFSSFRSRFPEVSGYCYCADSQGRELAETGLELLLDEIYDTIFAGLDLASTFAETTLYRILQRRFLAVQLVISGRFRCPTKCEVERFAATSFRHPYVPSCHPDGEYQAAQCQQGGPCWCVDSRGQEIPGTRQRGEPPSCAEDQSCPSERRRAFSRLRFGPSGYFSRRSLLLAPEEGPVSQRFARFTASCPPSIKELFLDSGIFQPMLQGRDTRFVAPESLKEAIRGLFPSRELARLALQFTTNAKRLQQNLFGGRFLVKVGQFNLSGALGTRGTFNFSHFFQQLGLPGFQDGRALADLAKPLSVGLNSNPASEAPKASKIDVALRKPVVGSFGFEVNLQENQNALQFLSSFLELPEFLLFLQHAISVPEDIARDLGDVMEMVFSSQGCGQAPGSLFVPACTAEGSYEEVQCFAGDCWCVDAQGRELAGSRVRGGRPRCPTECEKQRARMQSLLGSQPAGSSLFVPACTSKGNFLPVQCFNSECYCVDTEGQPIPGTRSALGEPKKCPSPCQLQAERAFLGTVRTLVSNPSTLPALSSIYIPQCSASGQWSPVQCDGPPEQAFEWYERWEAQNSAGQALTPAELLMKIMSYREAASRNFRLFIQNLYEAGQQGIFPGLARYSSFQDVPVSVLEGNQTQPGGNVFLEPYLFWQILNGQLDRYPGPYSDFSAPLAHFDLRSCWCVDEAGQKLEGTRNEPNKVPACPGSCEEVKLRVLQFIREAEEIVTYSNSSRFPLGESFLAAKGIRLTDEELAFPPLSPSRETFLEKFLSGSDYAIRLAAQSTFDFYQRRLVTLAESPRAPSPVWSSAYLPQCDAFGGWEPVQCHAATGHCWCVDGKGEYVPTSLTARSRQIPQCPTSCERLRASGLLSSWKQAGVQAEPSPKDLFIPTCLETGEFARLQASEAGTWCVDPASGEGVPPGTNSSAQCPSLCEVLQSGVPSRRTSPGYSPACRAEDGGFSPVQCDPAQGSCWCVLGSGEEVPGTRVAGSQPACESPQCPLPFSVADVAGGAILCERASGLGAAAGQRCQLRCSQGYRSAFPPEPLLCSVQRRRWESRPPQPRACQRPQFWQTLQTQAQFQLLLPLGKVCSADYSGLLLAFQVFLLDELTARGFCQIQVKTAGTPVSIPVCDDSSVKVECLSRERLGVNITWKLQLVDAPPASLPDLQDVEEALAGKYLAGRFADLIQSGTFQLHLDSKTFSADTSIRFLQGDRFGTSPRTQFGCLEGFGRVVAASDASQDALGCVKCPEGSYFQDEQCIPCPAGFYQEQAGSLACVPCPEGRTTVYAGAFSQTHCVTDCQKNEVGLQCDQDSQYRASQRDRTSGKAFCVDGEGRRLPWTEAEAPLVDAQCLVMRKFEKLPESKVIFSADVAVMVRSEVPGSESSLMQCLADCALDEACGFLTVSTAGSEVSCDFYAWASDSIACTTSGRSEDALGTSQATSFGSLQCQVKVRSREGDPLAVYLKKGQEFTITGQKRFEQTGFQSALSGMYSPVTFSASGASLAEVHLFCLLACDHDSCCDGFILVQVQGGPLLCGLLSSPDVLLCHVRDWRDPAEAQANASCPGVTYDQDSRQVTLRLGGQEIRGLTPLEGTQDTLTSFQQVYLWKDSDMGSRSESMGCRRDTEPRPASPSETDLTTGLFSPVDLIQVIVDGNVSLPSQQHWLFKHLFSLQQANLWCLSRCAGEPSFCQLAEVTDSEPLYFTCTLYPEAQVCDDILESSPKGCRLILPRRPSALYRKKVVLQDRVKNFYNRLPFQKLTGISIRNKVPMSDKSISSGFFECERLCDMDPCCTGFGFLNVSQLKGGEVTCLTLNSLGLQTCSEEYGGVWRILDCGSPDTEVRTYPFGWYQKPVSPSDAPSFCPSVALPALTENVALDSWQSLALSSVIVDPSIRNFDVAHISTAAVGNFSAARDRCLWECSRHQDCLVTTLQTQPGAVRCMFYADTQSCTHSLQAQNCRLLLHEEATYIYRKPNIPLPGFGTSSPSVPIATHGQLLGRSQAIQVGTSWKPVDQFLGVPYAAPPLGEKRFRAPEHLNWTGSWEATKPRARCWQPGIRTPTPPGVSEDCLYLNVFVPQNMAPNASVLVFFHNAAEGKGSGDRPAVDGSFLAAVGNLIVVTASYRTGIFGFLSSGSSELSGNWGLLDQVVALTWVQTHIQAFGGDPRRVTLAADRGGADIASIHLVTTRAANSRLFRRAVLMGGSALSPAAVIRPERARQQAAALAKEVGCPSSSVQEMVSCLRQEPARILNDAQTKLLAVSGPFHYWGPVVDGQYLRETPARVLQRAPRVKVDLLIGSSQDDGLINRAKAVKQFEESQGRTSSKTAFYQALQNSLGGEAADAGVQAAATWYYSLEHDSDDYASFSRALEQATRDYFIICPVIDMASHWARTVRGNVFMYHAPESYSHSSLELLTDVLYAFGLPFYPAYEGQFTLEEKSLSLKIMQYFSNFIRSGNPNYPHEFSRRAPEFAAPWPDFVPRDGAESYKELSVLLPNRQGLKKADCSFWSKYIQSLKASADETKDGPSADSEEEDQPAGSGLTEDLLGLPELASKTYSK

tubulin = target: T2, tubulin (Sus scrofa (brain tubulin, assumed from …, UniProt P02550;P02554))
T2 construct: tubulin alpha chain; Cytoskeleton T240-A; tubulin beta chain; As I recall, this catalogue item is tubulin purified from porcine brain (a mix of isotypes); source: bought: Cytoskeleton, Inc (T240-A)
T2 sequence (P02554 whole entry, looked up, chain 1 of 2): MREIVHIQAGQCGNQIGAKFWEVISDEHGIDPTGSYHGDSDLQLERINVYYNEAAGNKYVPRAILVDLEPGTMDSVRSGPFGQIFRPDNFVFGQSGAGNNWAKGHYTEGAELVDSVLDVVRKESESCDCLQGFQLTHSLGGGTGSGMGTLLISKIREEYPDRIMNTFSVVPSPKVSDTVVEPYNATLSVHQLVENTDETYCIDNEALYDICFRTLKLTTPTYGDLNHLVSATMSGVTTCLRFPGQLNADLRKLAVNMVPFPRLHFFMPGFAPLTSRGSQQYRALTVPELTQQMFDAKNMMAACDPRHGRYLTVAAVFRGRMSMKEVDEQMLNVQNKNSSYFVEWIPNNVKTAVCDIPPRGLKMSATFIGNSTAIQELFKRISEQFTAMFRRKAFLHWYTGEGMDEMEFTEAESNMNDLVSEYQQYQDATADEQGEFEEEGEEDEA
T2 sequence (P02550 whole entry, looked up, chain 2 of 2): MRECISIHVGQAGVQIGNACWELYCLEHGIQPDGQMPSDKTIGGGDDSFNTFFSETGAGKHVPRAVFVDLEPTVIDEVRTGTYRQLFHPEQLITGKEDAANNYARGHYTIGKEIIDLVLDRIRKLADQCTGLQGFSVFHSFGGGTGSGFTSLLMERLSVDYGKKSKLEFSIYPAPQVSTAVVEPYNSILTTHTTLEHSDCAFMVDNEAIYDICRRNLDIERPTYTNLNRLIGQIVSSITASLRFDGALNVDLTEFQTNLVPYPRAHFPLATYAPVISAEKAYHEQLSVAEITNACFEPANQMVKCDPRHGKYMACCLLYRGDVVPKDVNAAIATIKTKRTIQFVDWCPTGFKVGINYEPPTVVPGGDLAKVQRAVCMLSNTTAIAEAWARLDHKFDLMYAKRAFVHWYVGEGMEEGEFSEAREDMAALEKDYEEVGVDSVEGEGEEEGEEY

Measured: binding result

B1: single-chain Fv antibody fragment 18B7 (scFv, V domains shown)
VH: DVKLVESGGGLVKLGGSLKLSCVASGFTCSSYFMSWVRQTPEKRLELVAMINNNGDKTYYPDTVKGRFTISRDNAKNTLYLQMSSLKSEDTAMYYCARRDGTFGNHFDYWGQGTTLTVSS
VL: DVVMTQTPLSLPVSAGDQASISCRSSQSLCHSNGNTYLHWYLQKPGQSPKLLIYKVSNRFSGVPDKFSGSGSGTDFTLKISRVEAEDLGVYFCSQSTHVPWTFGGGTKLEIK
notes: VL of mAb 18B7; 15-residue linker, printed as (GGS)5 in the methods; the results call it (Gly4Ser)3; VH of mAb 18B7; A pelB leader was appended to the N-terminus; The tandem FLAG and His6 tags are at the C-terminus; also called scFv 18B7; scFv; source: E. coli BL21 STAR (pET22b+); also soluble in the periplasm; not shown: His6, C-terminal, kept
binds: all assays above
